# T1: DLG3_1, Q92796
# T1 sequence (Q92796 125-227, limits assumed, looked up): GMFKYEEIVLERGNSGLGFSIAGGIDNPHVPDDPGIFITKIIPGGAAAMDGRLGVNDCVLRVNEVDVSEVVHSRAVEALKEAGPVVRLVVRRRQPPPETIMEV
# What was measured:
# LNX1_2, Q8TBB1 = test: holdup assay; design: key: below the threshold = too weak to quantify, mostly under pKd 3.1 to 4
# DLG3_1, Q92796 = target: T1, DLG3_1, Q92796; test: holdup assay; design: key: below the threshold = too weak to quantify, mostly under pKd 3.1 to 4
# [1] = plain residues with an end cap or a label only (N-terminal biotin on a linker: ado-ado)
# [2] = modified: phospho on T at position -2 from the C-terminal residue
# Sequence of LNX1_2, Q8TBB1 (Q8TBB1 371-470): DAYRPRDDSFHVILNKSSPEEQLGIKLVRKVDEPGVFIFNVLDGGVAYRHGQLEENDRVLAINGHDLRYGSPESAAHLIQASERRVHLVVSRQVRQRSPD
Binder,"pKd (LNX1_2, Q8TBB1; [1])","pKd (DLG3_1, Q92796; [1])","pKd (LNX1_2, Q8TBB1; [2])","pKd (DLG3_1, Q92796; [2])"
"TPPAAKKSRI [BAZ1A, Q9NRL2]",below the threshold,3.53,–,–
"PAPSSGKDYV [CLDN1, O95832]",below the threshold,below the threshold,–,–
"TSQESEDTYL [TBC1D10A, Q9BXI6]",below the threshold,below the threshold,–,–
"KSGKQTMLVV [TRIM29, Q14134;Q14134-2]",4.23,–,–,–
"PKRSFIESNV [TANC1, Q9C0D5]",below the threshold,4.15,–,–
"AKPSRISTVV [IQSEC2, Q5JU85]",3.52,4.3,–,–
"DTTVPESEDL [MYOZ2, Q9NPC6]",below the threshold,below the threshold,–,–
"LSEFKAMDSI [CTNNA1, P35221]",below the threshold,below the threshold,–,–
"DDENIRTSDV [PLEKHA2, Q9HB19]",below the threshold,below the threshold,–,–
"HLRARKSEWV [GJD4, Q96KN9]",3.75,below the threshold,–,–
"VYPNAKVELV [PDLIM4_iso2, P50479;P50479-1]",–,below the threshold,–,–
"IPLDGETEEL [MYOZ1, Q9NP98]",below the threshold,below the threshold,–,–
"YYKRPVQEWV [MMP24, Q9Y5R2]",3.71,below the threshold,–,–
"QSLNRMEYIV [JAG1, P78504]",4.51,below the threshold,–,–
"VRNLPESEEL [MYOZ3, Q8TDC0]",below the threshold,below the threshold,–,–
"GQEEQVTTRL [TRPC5, Q9UL62]",below the threshold,below the threshold,–,–
"QMNQTLPVQV [EPHB3, P54753]",4.53,below the threshold,–,–
"PEYLGLDVPV [ERBB2, P04626]",below the threshold,below the threshold,–,–
"SKENVQETQI [LRRC4B, Q9NT99]",below the threshold,3.73,–,–
"GNSVLKSTQF [SLC22A12, Q96S37]",below the threshold,below the threshold,–,–
"LPHGHSTTRV [NLGN4X, Q8N0W4]",3.54,below the threshold,–,–

Binder,"pKd (LNX1_2, Q8TBB1; [1])","pKd (DLG3_1, Q92796; [1])","pKd (LNX1_2, Q8TBB1; [2])","pKd (DLG3_1, Q92796; [2])"
"YLEPVLSSEL [ATP2A2, P16615;P16615-3]",below the threshold,below the threshold,–,–
"DDEDRLVIEI [ZNF831, Q5JPB2]",below the threshold,below the threshold,–,–
"PDGQCTVTEV [RNF146, Q9NTX7]",3.99,3.87,–,–
"NLSIEKETKL [ASNSD1, Q9NWL6]",below the threshold,below the threshold,–,–
"SAKVRTVTSV [RASL11B, Q9BPW5]",3.92,3.84,–,–
"SKSNFGSEPL [KIF17, Q9P2E2]",below the threshold,below the threshold,–,–
"DDPSTAETVL [ABCA7, Q8IZY2]",below the threshold,below the threshold,–,–
"SSALYGESDL [ACTN2, P35609]",below the threshold,below the threshold,–,–
"LPHPHSTTRV [NLGN2, Q8NFZ4]",below the threshold,below the threshold,–,–
"NHSSSPETTA [TRMT13, Q9NUP7]",below the threshold,below the threshold,–,–
"PRISRSQSEL [CCDC134, Q9H6E4]",below the threshold,below the threshold,–,–
"QHKTQLQTLI [BPIFA2, Q96DR5]",below the threshold,3.68,–,–
"QGLAERISVL [PRKD2, Q9BZL6]",below the threshold,below the threshold,–,–
"RHGSCVETSL [TMEM151B, Q8IW70]",below the threshold,3.53,–,–
"QPCFNKLFPL [LPXN, O60711]",below the threshold,below the threshold,–,–
"VDSTVKVWTC [TRAF7, Q6Q0C0]",5.3,below the threshold,–,–
"EVEEFPETSV [TRPV3, Q8NET8]",3.59,3.87,–,–
"RLQRRRETQV [HPV18-E6_-2P, P06463]",–,–,below the threshold,below the threshold
"EVNETDDTKM [KCNJ1, P48048]",below the threshold,below the threshold,–,–
"QKNRKAQEDL [CES3, Q6UWW8]",below the threshold,below the threshold,–,–
"VNKSKLLTDV [KCNA1, Q09470]",below the threshold,3.66,–,–
